Test results taken from US20250099534A1, “UBIQUITIN HIGH AFFINITY CYCLIC PEPTIDES AND METHODS OF USE THEREOF” (TECHNION RESEARCH & DEVELOPMENT FOUNDATION LIMITED, priority 2022, published 2025).
Read-outs that look alike come from different tables or passages of the source. Starred links: 1 amine or outer side, 2 acyl side, 3 side chain; linkers in the order of their positions; H or OH if unused. Positions of bridges follow the written chain, without caps; N, C: chain ends. No end group written: not given here. *: point of attachment. mClBz = N-terminal group cyclised as a benzyl thioether to a Cys, O=C(c1cccc(C[*:3])c1)[*:2]; C6F5 = pentafluorophenyl group on the Cys sulfur, Fc1c(F)c(F)c(*)c(F)c1F

Legend:
[1] = biological target: Lys63-linked Ub chains (on proteins in cells and in U2OS lysate); assay: cell-based or functional assay
[2] = biological target: Lys63-linked Ub chains (on proteins in cells and in U2OS lysate); assay: cell-based or functional assay; remark: listed apart in the source

| Binder | γ-H2AX level, western blot, HeLa cells [1] [fold] | γ-H2AX level, western blot, U2OS cells [1] [fold] | increase in the population of HeLa cells at G2/M phase, flow cytometry, 72 h [2] [%] | increase in the population of HeLa cells at G2/M phase, flow cytometry, 96 h [2] [%] | increase of overall Annexin V positive HeLa cells, 96 h [2] [%] | relative tail moment, comet assay, U2OS cells [2] [fold] | γ-H2AX level, western blot, HeLa cells [2] [fold] | γ-H2AX level, western blot, U2OS cells [2] [fold] |
| --- | --- | --- | --- | --- | --- | --- | --- | --- |
| mClBz-C(C6F5)LIWIGSSKNPYILCG (thioether N-15) [cyclic peptide 20, CP1-L1C-C6F5] | 2.4 | 1.8 | – | – | – | – | – | – |
| mClBz-CLIWIGSSKNPYILCG (bridge N-15; not fully specified (C-terminus, bridges)) [cyclic peptide 2 (CP1-L1C)] | – | – | 5.2 | 13 | 14.5 | 8 | 3.5 | 3 |
